# Reference: publication PMC3040777, “Purification and Characterization of the RecA Protein from Neisseria gonorrhoeae”
# T1: SSBNg (Neisseria gonorrhoeae, UniProt Q5F7Y0 1-174)
# T1 sequence: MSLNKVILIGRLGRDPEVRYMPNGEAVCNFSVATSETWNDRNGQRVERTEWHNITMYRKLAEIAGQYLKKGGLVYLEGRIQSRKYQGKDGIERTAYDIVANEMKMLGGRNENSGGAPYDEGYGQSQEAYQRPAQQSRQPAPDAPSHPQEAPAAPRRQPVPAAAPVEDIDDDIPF
# Experiments:
# [1] = target: SSBEc (Escherichia coli, UniProt P0AGE0 1-178); assay: EMSA; 50 uM nucleotides ssDNA; SSB 10 nM-10 uM; fully bound at 1/10 SSB; affinity similar to SSBNg; EMSA: 20 mM Tris-Cl 39% cation (pH 8.3), 0.5 M NaCl, 1 mM EDTA, 50% glycerol, 10 min at 37 C; 4% native PAGE at 4 C; details: protein: recombinant; chain copies: 4; label: 5'-6FAM; single strand
# Chain of SSBEc (P0AGE0 whole entry): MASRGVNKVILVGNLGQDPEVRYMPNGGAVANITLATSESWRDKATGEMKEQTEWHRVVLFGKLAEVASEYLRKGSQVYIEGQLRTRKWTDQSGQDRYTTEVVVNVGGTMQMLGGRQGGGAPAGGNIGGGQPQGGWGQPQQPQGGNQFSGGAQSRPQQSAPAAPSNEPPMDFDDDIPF
# [2] = target: T1, SSBNg; assay: EMSA; 50 uM nucleotides ssDNA; SSB 10 nM-10 uM; fully bound at 1/10 SSB; affinity similar to SSBEc; EMSA: 20 mM Tris-Cl 39% cation (pH 8.3), 0.5 M NaCl, 1 mM EDTA, 50% glycerol, 10 min at 37 C; 4% native PAGE at 4 C; details: protein: recombinant; tags: none stated (pET21a, native purification); chain copies: 4; label: 5'-6FAM; single strand
binder,measurement,setting,value
TGCCTCGCGGTAGCTCTTCTCGGAGCGCACGATTCGCACTGCTGATGTTC (ssDNA) [OCN324 50-mer],binding result,[1],binds
same,binding result,[2],binds
